Patent publication US20040170601A1, “Method of improving the growth performance of an animal” (priority 2001, published 2004)
“Also recorded” adds a separate entry of the source.

Experiments:
[1] = Example 4: growth performance of pigs administered IL-5 in a commercial piggery; type: in vivo; design: average weight, higher than saline medicated controls / rate of gain (ROG), increase over saline medicated control / increase in total weight compared to saline medicated control group / increase in weight gain compared to saline medicated control group / increase in average weight compared to saline medicated control group: concentration or dose not given beside the values
Experimental: This trial evaluated the capacity of IL-5 to improve growth performance and immunity of pigs by comparing the growth rate and health of weaner pigs (28 day old weaners is Day 0 of the trial and the weaner period continued for 42 days) through to the finisher stage (Days 93 to 113) and slaughter (133 days after commencing the trial). The pigs were administered recombinant porcine cytokine, IL-5, and saline was used as a control, with and without standard weaner medicated water and feed in a commercial piggery environment.
40 pigs per treatment mixed in-groups of 20, with 4 replicates containing standard medicated water and feed and 4 replicates without medicated feed or water.
Overall weights for each group at the start of the experiment were equivalent. All pigs at the start of the trial (Day 0) were 28 day old male weaners.
IL-5 was provided in saline to inject one ml/pig.
Weights were measured at the start, weekly and at end of the experiment. The original proposal was designed for measuring weight over the weaner period; however, due to significant growth responses with IL-5 administration the measurement of weight continued to slaughter (pigs were 161 days old).
Recombinant porcine IL-5 was expressed in E. coli and purified using a polyHis tag system as described in Qiagen Inc, USA, instructions and Clontech, USA, Talon Manual instructions. IL-5 was tested for biological activity in a bioassay prior to the start of the experiment.
At the start of the trial, the mean weights and variance for each group were equalised. Thus, the increase in total or average weights witnessed in the IL-5 medicated group was due to IL-5 administration and not simply due to differences between weights at the start of the trial.

[2] = test system: haemorrhagic E. coli; assay: Example 6: haemorrhagic E. coli challenge of weaner pigs; type: in vivo; design: decrease in faecal shedding (total faecal culture scores) compared to saline treated controls / reduction in clinical signs compared to saline controls / reduction in E. coli culture scores at post-mortem compared to saline controls / reduction of bacterial load in the small intestine (foregut) compared with saline controls: concentration or dose not given beside the values
Experimental: Male weaner pigs, with a mean weight of 5.4 kg were allocated to groups of 8, with the mean weight being equalised between groups. Pigs were housed in group pens. Pigs were provided with pelleted feed and water ad libitum.
Pigs were treated with cytokines or the antibiotic, Apralan, and challenged with E. coli according to the schedule outlined in FIG. 42. E. coli were delivered orally in an 8 ml dose containing 10^8 cfu/ml. Blood was sampled from pigs by venipuncture at −2 days, day 0, and +6 days from initial challenge with E. coli as outlined in FIG. 42. Blood was assayed for immunological parameters as previously described. Pigs were weighed at day −2 and at the end of the trial on day 7.
Faecal samples were taken from each pig daily from day 2 to day 6 after challenge; these samples were cultured on sheep blood agar to quantify E. coli load. The condition of faeces on each day of challenge was noted as normal, wet or diarrhoea, as an indication of clinical signs.
At the conclusion of the experiment, pigs were euthanased and samples were taken from different areas in the gastro-intestinal tract, including the small intestine (25%, 50% and 75% along the length of the small intestine), the caecum and colon, and from the faeces. These post-mortem samples were also plated out on sheep blood agar to quantify E. coli load. Growth on sheep blood agar was scored from 0 to 5 (where 0 was no growth, 1 signified growth in the primary inoculum, 2 signified growth in the first streak, 3 signified growth in the 2nd streak, 4 signified growth in the 3rd streak, and 5 signified growth of E. coli in the final streak), and group means and standard errors were calculated.

[3] = end of the treatment period, 1st trial, IL-5 plus medication

B1: interleukin 5 (protein, UniProt Q9MYM5 22-134, looked up)
Interleukin-5: VENTMNRLVAETLTLLSIHRTLLIGDGNLMISTPVHTNHQLCIEEVFQGIDTLKNQTARGDAVEKLFQNLSLIKEYIDRQKKNCGGERWRVTQFLDYLQVFLGVINTEWTMES
notes: recombinant porcine IL-5 protein expressed in E. coli; + / − = with / without antibiotic medicated feed and water, +p = weaner period only
consistency of growth performance (individual weights at end of weaner period) ([1]; IL-5 medicated group): more consistent than all other groups
average weight, higher than saline medicated controls ([1]; IL-5 medicated group, Week 1): 5.5%
rate of gain (ROG), increase over saline medicated control ([1]; IL-5 medicated group, Week 1): 45.6%
total combined group weight, higher than saline medicated group ([1]; IL-5 medicated group, Week 1): 5.5%
average weight, higher than saline medicated controls ([1]; IL-5 medicated group, Week 2): 6.3%
rate of gain (ROG), increase over saline medicated control ([1]; IL-5 medicated group, Week 2): 19.6%
total combined group weight, higher than saline medicated group ([1]; IL-5 medicated group, Week 2): 6.3%
average weight, higher than saline medicated controls ([1]; IL-5 medicated group, Week 3): 8.8%
rate of gain (ROG), increase over saline medicated control ([1]; IL-5 medicated group, Week 3): 18.2%
total combined group weight, higher than saline medicated group ([1]; IL-5 medicated group, Week 3): 8.8%
average weight, higher than saline medicated controls ([1]; IL-5 medicated group, Week 4): 5.5%
rate of gain (ROG), increase over saline medicated control ([1]; IL-5 medicated group, Week 4): 8.8%
total combined group weight, higher than saline medicated group ([1]; IL-5 medicated group, Week 4): 11.1%
average weight, higher than saline medicated controls ([1]; IL-5 medicated group, Week 5): 7.8%
rate of gain (ROG), increase over saline medicated control ([1]; IL-5 medicated group, Week 5): 11.3%
total combined group weight, higher than saline medicated group ([1]; IL-5 medicated group, Week 5): 13.4%
average weight, higher than saline medicated controls ([1]; IL-5 medicated group, Week 6): 6.8%
rate of gain (ROG), increase over saline medicated control ([1]; IL-5 medicated group, Week 6): 9.1%
total combined group weight, higher than saline medicated group ([1]; IL-5 medicated group, Week 6): 18.6%
average weights during weaner period ([1]; IL-5 un-medicated group vs un-medicated saline controls): consistently small increase in average weights over the un-medicated saline controls except for the last week
increase in average weight compared to saline medicated control group [1, 3]: 7%
increase in total weight compared to saline medicated control group [1, 3]: 18%
increase in weight gain compared to saline medicated control group [1, 3]: 9%
average weights of individual pigs during trial ([1]; medicated): consistently higher average weights than all other groups
increase of average warm carcass weight over the medicated saline control ([1]; medicated): 6 kg
rate of gain over the weaner period ([1]; medicated): consistently increased the rate of gain in the medicated pigs
total weights of all pigs in group over the entire production period ([1]; medicated): significant increase in total weights compared to all other groups
warm carcass weight ([1]; medicated with antibiotics, vs saline controls): increased warm carcass weight compared to saline controls when pigs were medicated with antibiotics
individual final weights ([1]; medicated, all pigs of group): above 90 kg
total combined group weight above saline medicated group ([1]; over 6 weeks for a group of 20 pigs, medicated): 89 kg
rate of gain over the weaner period ([1]; un-medicated): generally higher than the un-medicated saline control
variation in individual pig weights ([1]; up to slaughter): reduced variation in individual pig weights up to slaughter
dressing percentage of carcasses at slaughter ([1]; with or without antibiotics, vs saline controls): improved dressing percentage regardless of antibiotic administration; also recorded: significantly higher % dressing than the respective saline controls
clinical signs (wet faeces or diarrhoea) ([2]; 5 days after challenge): fewer recorded cases of wet faeces and diarrhoea than saline controls or Apralan treatment
E. coli shedding in faeces (faecal culture) ([2]; day 2 to day 6 after challenge): decreased E. coli shedding in faeces
decrease in faecal shedding (total faecal culture scores) compared to saline treated controls ([2]; entire challenge period): 43%
reduction in E. coli culture scores at post-mortem compared to saline controls ([2]; gastro-intestinal tract total): 15%
appetite (daily feed intake per pig) during E. coli challenge ([2]; pig, in vivo): improved appetite compared to saline treated pigs
bacterial load in areas of the gastro-intestinal tract at post-mortem ([2]; pig, in vivo): reduced bacterial load in most areas of the gastro-intestinal tract
days after challenge with bacterial shedding significantly less than saline treated controls ([2]; pig, in vivo): 3/5
group mean total E. coli culture score at post-mortem (out of a possible 30) ([2]; pig, in vivo): less than 15
reduction in clinical signs compared to saline controls ([2]; pig, in vivo): 64%
reduction of bacterial load in the small intestine (foregut) compared with saline controls ([2]; post-mortem): 36%
